Km data for three proteins are collected here from ChEMBL document CHEMBL1124237, “Linear free energy relationship studies of enzyme active site binding: thymidylate synthase” (J Med Chem, 1988).

Substrate in data set [1]: O=c1[nH]c(=O)n([C@H]2C[C@H](O)[C@@H](COP(=O)(O)O)O2)cc1-c1ccc(O)cc1
Particulars: Homo sapiens.
Description: (§1) Inhibitory effect on human lymphoblast (Molt/4F) thymidylate synthase

Substrate in data set [2]: NC(=O)c1ccc(-c2cn([C@H]3C[C@H](O)[C@@H](COP(=O)(O)O)O3)c(=O)[nH]c2=O)cc1
As to conditions: Homo sapiens.
Description: as §1

Substrate in data set [3]: COC(=O)c1ccc(-c2cn([C@H]3C[C@H](O)[C@@H](COP(=O)(O)O)O3)c(=O)[nH]c2=O)cc1
Particulars: Homo sapiens.
Description: as §1

Substrate in data set [4]: N#Cc1ccc(-c2cn([C@H]3C[C@H](O)[C@@H](COP(=O)(O)O)O3)c(=O)[nH]c2=O)cc1
Particulars: Homo sapiens.
Description: as §1

Substrate in data set [5]: O=c1[nH]c(=O)n([C@H]2C[C@H](O)[C@@H](COP(=O)(O)O)O2)cc1-c1ccc(O)cc1
As to conditions: Mus musculus.
Description: (§2) Inhibitory effect on murine leukemia (L1210) thymidylate synthase

Substrate in data set [6]: NC(=O)c1ccc(-c2cn([C@H]3C[C@H](O)[C@@H](COP(=O)(O)O)O3)c(=O)[nH]c2=O)cc1
As to conditions: Mus musculus.
Description: as §2

Substrate in data set [7]: COC(=O)c1ccc(-c2cn([C@H]3C[C@H](O)[C@@H](COP(=O)(O)O)O3)c(=O)[nH]c2=O)cc1
Particulars: Mus musculus.
Description: as §2

Substrate in data set [8]: N#Cc1ccc(-c2cn([C@H]3C[C@H](O)[C@@H](COP(=O)(O)O)O3)c(=O)[nH]c2=O)cc1
As to conditions: Mus musculus.
Description: as §2

Substrate in data set [9]: O=c1[nH]c(=O)n([C@H]2C[C@H](O)[C@@H](COP(=O)(O)O)O2)cc1-c1ccc(O)cc1
As to conditions: Lacticaseibacillus casei.
Description: (§3) Inhibitory effect against Lactobacillus casei thymidylate synthase

Substrate in data set [10]: NC(=O)c1ccc(-c2cn([C@H]3C[C@H](O)[C@@H](COP(=O)(O)O)O3)c(=O)[nH]c2=O)cc1
As to conditions: Lacticaseibacillus casei.
Description: as §3

Substrate in data set [11]: COC(=O)c1ccc(-c2cn([C@H]3C[C@H](O)[C@@H](COP(=O)(O)O)O3)c(=O)[nH]c2=O)cc1
As to conditions: Lacticaseibacillus casei.
Description: as §3

Substrate in data set [12]: N#Cc1ccc(-c2cn([C@H]3C[C@H](O)[C@@H](COP(=O)(O)O)O3)c(=O)[nH]c2=O)cc1
Description: as §3
As to conditions: Lacticaseibacillus casei.

B1: Thymidylate synthase (Homo sapiens), P04818 (protein)
chain: MPVAGSELPRRPLPPAAQERDAEPRPPHGELQYLGQIQHILRCGVRKDDRTGTGTLSVFGMQARYSLRDEFPLLTTKRVFWKGVLEELLWFIKGSTNAKELSSKGVKIWDANGSRDFLDSLGFSTREEGDLGPVYGFQWRHFGAEYRDMESDYSGQGVDQLQRVIDTIKTNPDDRRIIMCAWNPRDLPLMALPPCHALCQFYVVNSELSCQLYQRSGDMGLGVPFNIASYALLTYMIAHITGLKPGDFIHTLGDAHIYLNHIEPLKIQLQREPRPFPKLRILRKVEKIDDFKAEDFQIEGYNPHPTIKMEMAV
For the protein B1, the Km in data set [1] was 1.54 µM; in data set [2], 1.48 µM; in data set [3] it was 1.38 µM; in data set [4] it was 1.51 µM.

B2: Thymidylate synthase (Mus musculus), P07607 (protein)
chain: MLVVGSELQSDAQQLSAEAPRHGELQYLRQVEHILRCGFKKEDRTGTGTLSVFGMQARYSLRDEFPLLTTKRVFWKGVLEELLWFIKGSTNAKELSSKGVRIWDANGSRDFLDSLGFSARQEGDLGPVYGFQWRHFGAEYKDMDSDYSGQGVDQLQKVIDTIKTNPDDRRIIMCAWNPKDLPLMALPPCHALCQFYVVNGELSCQLYQRSGDMGLGVPFNIASYALLTYMIAHITGLQPGDFVHTLGDAHIYLNHIEPLKIQLQREPRPFPKLKILRKVETIDDFKVEDFQIEGYNPHPTIKMEMAV
For B2, the Km was determined as 1.28 µM in data set [5], 1.28 µM in data set [6], 1.28 µM in data set [7] and 1.27 µM in data set [8].

B3: Thymidylate synthase (Lactobacillus casei), P00469 (protein)
chain: MLEQPYLDLAKKVLDEGHFKPDRTHTGTYSIFGHQMRFDLSKGFPLLTTKKVPFGLIKSELLWFLHGDTNIRFLLQHRNHIWDEWAFEKWVKSDEYHGPDMTDFGHRSQKDPEFAAVYHEEMAKFDDRVLHDDAFAAKYGDLGLVYGSQWRAWHTSKGDTIDQLGDVIEQIKTHPYSRRLIVSAWNPEDVPTMALPPCHTLYQFYVNDGKLSLQLYQRSADIFLGVPFNIASYALLTHLVAHECGLEVGEFIHTFGDAHLYVNHLDQIKEQLSRTPRPAPTLQLNPDKHDIFDFDMKDIKLLNYDPYPAIKAPVAV
For the protein B3, the Km in data set [9] is 4.8 µM; in data set [10] it was 4.01 µM; in data set [11], 4.19 µM; in data set [12], 4.37 µM.
